Results published in paper doi:10.1101/447979.

Molecular target: FLAG-tagged human importin-α7 (human) (UniProt O60684)
Test: co-IP

nucleoprotein (NP) of 2009 pandemic H1N1 influenza A virus A/Hamburg/NY1580/09, parental (natural protein)
fold binding against importin-α1: 10 fold
